T1: EsCas13d, nuclease-dead (Eubacterium siraeum, UniProt B0MS50, R295A;H300A;R849A;H854A)
T1 sequence: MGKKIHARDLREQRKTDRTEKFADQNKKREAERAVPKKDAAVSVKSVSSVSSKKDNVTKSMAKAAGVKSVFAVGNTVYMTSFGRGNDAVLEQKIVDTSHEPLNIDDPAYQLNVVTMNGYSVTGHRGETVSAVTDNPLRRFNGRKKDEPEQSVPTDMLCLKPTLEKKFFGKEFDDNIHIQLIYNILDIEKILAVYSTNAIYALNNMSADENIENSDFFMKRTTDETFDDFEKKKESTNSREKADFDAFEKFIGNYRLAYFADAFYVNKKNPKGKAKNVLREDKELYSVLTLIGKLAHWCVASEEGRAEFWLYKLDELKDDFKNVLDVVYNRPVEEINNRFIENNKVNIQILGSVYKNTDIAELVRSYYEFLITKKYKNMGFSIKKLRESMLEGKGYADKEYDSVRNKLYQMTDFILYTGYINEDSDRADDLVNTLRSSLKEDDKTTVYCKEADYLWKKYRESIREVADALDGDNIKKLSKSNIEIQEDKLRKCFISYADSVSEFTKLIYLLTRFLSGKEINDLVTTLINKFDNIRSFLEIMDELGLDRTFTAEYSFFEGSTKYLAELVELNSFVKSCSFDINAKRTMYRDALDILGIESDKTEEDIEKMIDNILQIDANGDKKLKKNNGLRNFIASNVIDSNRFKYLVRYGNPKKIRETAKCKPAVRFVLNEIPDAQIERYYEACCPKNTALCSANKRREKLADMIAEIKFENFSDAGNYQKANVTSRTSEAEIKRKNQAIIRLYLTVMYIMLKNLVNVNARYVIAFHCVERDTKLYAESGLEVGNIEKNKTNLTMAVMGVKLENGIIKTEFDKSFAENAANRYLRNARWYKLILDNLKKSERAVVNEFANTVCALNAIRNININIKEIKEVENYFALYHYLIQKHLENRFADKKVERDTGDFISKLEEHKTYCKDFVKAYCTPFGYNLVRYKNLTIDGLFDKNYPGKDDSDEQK

B1: target 2 MT 5'PFS AGA 3'PFS AAG (mixed)
RNA 1: CACCCGUGCAAAAUUGCAGGGGUCUAAAACCUUCUCCAAAUUGUUUCAUCCU
RNA 2: GGGAAUGGAUCCACAUCUACGAAUUCAGAAGGAUGAAACAAUUUGGAGAAGAAGAGAUCGGAAGAGCACACGU
B2: target 2 MT 5'PFS CAU 3'PFS AGA (mixed)
RNA 1: CACCCGUGCAAAAUUGCAGGGGUCUAAAACCUUCUCCAAAUUGUUUCAUCCU
RNA 2: GGGAAUGGAUCCACAUCUACGAAUUCCAUAGGAUGAAACAAUUUGGAGAAGAGAAGAUCGGAAGAGCACACGU
B3: target 2 MT 5'PFS UAU 3'PFS UGC (mixed)
RNA 1: CACCCGUGCAAAAUUGCAGGGGUCUAAAACCUUCUCCAAAUUGUUUCAUCCU
RNA 2: GGGAAUGGAUCCACAUCUACGAAUUCUAUAGGAUGAAACAAUUUGGAGAAGUGCAGAUCGGAAGAGCACACGU
B4: target 2 MT 5'PFS UUG 3'PFS CGC (mixed)
RNA 1: CACCCGUGCAAAAUUGCAGGGGUCUAAAACCUUCUCCAAAUUGUUUCAUCCU
RNA 2: GGGAAUGGAUCCACAUCUACGAAUUCUUGAGGAUGAAACAAUUUGGAGAAGCGCAGAUCGGAAGAGCACACGU
B5: target 2 MT 5'PFS UUG 3'PFS CGA (mixed)
RNA 1: CACCCGUGCAAAAUUGCAGGGGUCUAAAACCUUCUCCAAAUUGUUUCAUCCU
RNA 2: GGGAAUGGAUCCACAUCUACGAAUUCUUGAGGAUGAAACAAUUUGGAGAAGCGAAGAUCGGAAGAGCACACGU
B6: target 2 MT 5'PFS AGA 3'PFS AAA (mixed)
RNA 1: CACCCGUGCAAAAUUGCAGGGGUCUAAAACCUUCUCCAAAUUGUUUCAUCCU
RNA 2: GGGAAUGGAUCCACAUCUACGAAUUCAGAAGGAUGAAACAAUUUGGAGAAGAAAAGAUCGGAAGAGCACACGU
B7: target 2 MT 5'PFS UGU 3'PFS CAG (mixed)
RNA 1: CACCCGUGCAAAAUUGCAGGGGUCUAAAACCUUCUCCAAAUUGUUUCAUCCU
RNA 2: GGGAAUGGAUCCACAUCUACGAAUUCUGUAGGAUGAAACAAUUUGGAGAAGCAGAGAUCGGAAGAGCACACGU
B8: target 2 MT 5'PFS GUC 3'PFS CAU (mixed)
RNA 1: CACCCGUGCAAAAUUGCAGGGGUCUAAAACCUUCUCCAAAUUGUUUCAUCCU
RNA 2: GGGAAUGGAUCCACAUCUACGAAUUCGUCAGGAUGAAACAAUUUGGAGAAGCAUAGAUCGGAAGAGCACACGU
B9: target 2 MT 5'PFS CUU 3'PFS ACC (mixed)
RNA 1: CACCCGUGCAAAAUUGCAGGGGUCUAAAACCUUCUCCAAAUUGUUUCAUCCU
RNA 2: GGGAAUGGAUCCACAUCUACGAAUUCCUUAGGAUGAAACAAUUUGGAGAAGACCAGAUCGGAAGAGCACACGU
B10: target 2 MT 5'PFS UAU 3'PFS UGA (mixed)
RNA 1: CACCCGUGCAAAAUUGCAGGGGUCUAAAACCUUCUCCAAAUUGUUUCAUCCU
RNA 2: GGGAAUGGAUCCACAUCUACGAAUUCUAUAGGAUGAAACAAUUUGGAGAAGUGAAGAUCGGAAGAGCACACGU
B11: target 2 MT 5'PFS GAG 3'PFS CGU (mixed)
RNA 1: CACCCGUGCAAAAUUGCAGGGGUCUAAAACCUUCUCCAAAUUGUUUCAUCCU
RNA 2: GGGAAUGGAUCCACAUCUACGAAUUCGAGAGGAUGAAACAAUUUGGAGAAGCGUAGAUCGGAAGAGCACACGU
B12: target 2 MT 5'PFS CGA 3'PFS CUU (mixed)
RNA 1: CACCCGUGCAAAAUUGCAGGGGUCUAAAACCUUCUCCAAAUUGUUUCAUCCU
RNA 2: GGGAAUGGAUCCACAUCUACGAAUUCCGAAGGAUGAAACAAUUUGGAGAAGCUUAGAUCGGAAGAGCACACGU
B13: target 2 MT 5'PFS CGA 3'PFS UUA (mixed)
RNA 1: CACCCGUGCAAAAUUGCAGGGGUCUAAAACCUUCUCCAAAUUGUUUCAUCCU
RNA 2: GGGAAUGGAUCCACAUCUACGAAUUCCGAAGGAUGAAACAAUUUGGAGAAGUUAAGAUCGGAAGAGCACACGU
B14: target 2 MT 5'PFS CUU 3'PFS ACU (mixed)
RNA 1: CACCCGUGCAAAAUUGCAGGGGUCUAAAACCUUCUCCAAAUUGUUUCAUCCU
RNA 2: GGGAAUGGAUCCACAUCUACGAAUUCCUUAGGAUGAAACAAUUUGGAGAAGACUAGAUCGGAAGAGCACACGU
B15: target 2 MT 5'PFS UAU 3'PFS UGU (mixed)
RNA 1: CACCCGUGCAAAAUUGCAGGGGUCUAAAACCUUCUCCAAAUUGUUUCAUCCU
RNA 2: GGGAAUGGAUCCACAUCUACGAAUUCUAUAGGAUGAAACAAUUUGGAGAAGUGUAGAUCGGAAGAGCACACGU
B16: target 2 MT 5'PFS CAU 3'PFS AGC (mixed)
RNA 1: CACCCGUGCAAAAUUGCAGGGGUCUAAAACCUUCUCCAAAUUGUUUCAUCCU
RNA 2: GGGAAUGGAUCCACAUCUACGAAUUCCAUAGGAUGAAACAAUUUGGAGAAGAGCAGAUCGGAAGAGCACACGU
B17: target 2 MT 5'PFS AGC 3'PFS CGG (mixed)
RNA 1: CACCCGUGCAAAAUUGCAGGGGUCUAAAACCUUCUCCAAAUUGUUUCAUCCU
RNA 2: GGGAAUGGAUCCACAUCUACGAAUUCAGCAGGAUGAAACAAUUUGGAGAAGCGGAGAUCGGAAGAGCACACGU
B18: target 2 MT 5'PFS AGC 3'PFS CGA (mixed)
RNA 1: CACCCGUGCAAAAUUGCAGGGGUCUAAAACCUUCUCCAAAUUGUUUCAUCCU
RNA 2: GGGAAUGGAUCCACAUCUACGAAUUCAGCAGGAUGAAACAAUUUGGAGAAGCGAAGAUCGGAAGAGCACACGU
B19: target 2 MT 5'PFS GAG 3'PFS AGA (mixed)
RNA 1: CACCCGUGCAAAAUUGCAGGGGUCUAAAACCUUCUCCAAAUUGUUUCAUCCU
RNA 2: GGGAAUGGAUCCACAUCUACGAAUUCGAGAGGAUGAAACAAUUUGGAGAAGAGAAGAUCGGAAGAGCACACGU
B20: target 2 MT 5'PFS AGA 3'PFS AAC (mixed)
RNA 1: CACCCGUGCAAAAUUGCAGGGGUCUAAAACCUUCUCCAAAUUGUUUCAUCCU
RNA 2: GGGAAUGGAUCCACAUCUACGAAUUCAGAAGGAUGAAACAAUUUGGAGAAGAACAGAUCGGAAGAGCACACGU
B21: target 2 MT 5'PFS GAG 3'PFS AGC (mixed)
RNA 1: CACCCGUGCAAAAUUGCAGGGGUCUAAAACCUUCUCCAAAUUGUUUCAUCCU
RNA 2: GGGAAUGGAUCCACAUCUACGAAUUCGAGAGGAUGAAACAAUUUGGAGAAGAGCAGAUCGGAAGAGCACACGU
B22: target 2 MT 5'PFS UGU 3'PFS CAC (mixed)
RNA 1: CACCCGUGCAAAAUUGCAGGGGUCUAAAACCUUCUCCAAAUUGUUUCAUCCU
RNA 2: GGGAAUGGAUCCACAUCUACGAAUUCUGUAGGAUGAAACAAUUUGGAGAAGCACAGAUCGGAAGAGCACACGU
B23: target 2 MT 5'PFS CUU 3'PFS ACG (mixed)
RNA 1: CACCCGUGCAAAAUUGCAGGGGUCUAAAACCUUCUCCAAAUUGUUUCAUCCU
RNA 2: GGGAAUGGAUCCACAUCUACGAAUUCCUUAGGAUGAAACAAUUUGGAGAAGACGAGAUCGGAAGAGCACACGU
B24: target 2 MT 5'PFS GUA 3'PFS CAG (mixed)
RNA 1: CACCCGUGCAAAAUUGCAGGGGUCUAAAACCUUCUCCAAAUUGUUUCAUCCU
RNA 2: GGGAAUGGAUCCACAUCUACGAAUUCGUAAGGAUGAAACAAUUUGGAGAAGCAGAGAUCGGAAGAGCACACGU
B25: target 2 MT 5'PFS CUU 3'PFS ACA (mixed)
RNA 1: CACCCGUGCAAAAUUGCAGGGGUCUAAAACCUUCUCCAAAUUGUUUCAUCCU
RNA 2: GGGAAUGGAUCCACAUCUACGAAUUCCUUAGGAUGAAACAAUUUGGAGAAGACAAGAUCGGAAGAGCACACGU
B26: target 2 MT 5'PFS AGC 3'PFS CGC (mixed)
RNA 1: CACCCGUGCAAAAUUGCAGGGGUCUAAAACCUUCUCCAAAUUGUUUCAUCCU
RNA 2: GGGAAUGGAUCCACAUCUACGAAUUCAGCAGGAUGAAACAAUUUGGAGAAGCGCAGAUCGGAAGAGCACACGU
B27: target 1 A9C,A16C (mixed)
RNA 1: CACCCGUGCAAAAAUGCAGGGGUCUAAAACUGAGCGGAUAACCUCUCUAUGG
RNA 2: GGGAAUGGAUCCACAUCUACGAAUUCGUACCAUAGCGAGGUUCUCCGCUCACCGAGAUCGGAAGAGCACACGU
B28: target 1 G5A,A20C (mixed)
RNA 1: CACCCGUGCAAAAAUGCAGGGGUCUAAAACUGAGCGGAUAACCUCUCUAUGG
RNA 2: GGGAAUGGAUCCACAUCUACGAAUUCGUACCCUAGAGAGGUUAUCCACUCACCGAGAUCGGAAGAGCACACGU

The binders below were run against T1, EsCas13d, nuclease-dead (assay: crRNA (strand 1, pre-loaded); Mg2+; 40 mM Tris-HCl pH 7.5, 150 mM NaCl, 6 mM MgCl2, 1 mM DTT, 0.1% Tween-20, 0.2 mg/ml BSA; 25 C; 10 min per concentration, then washed). Conditions: tags: His6-TwinStrep-SUMO cleaved; N-terminal SNAP kept (SNAP-Surface 488); label: 3' end held by stalled T7 RNA polymerase.
Work on B1 yielded a Kd of 7.1 ± 1.3 nM.
With B2 the Kd was 2.8 ± 0.6 nM.
Work on B3 yielded a Kd of 30 ± 6 nM.
In the case of B4, the Kd is reported as 15.9 ± 1.5 nM.
Work on B5 yielded a Kd of 11.4 ± 1 nM.
Binder B6 has a Kd of 4.5 ± 1.2 nM.
With B7 the Kd was 9 ± 0.9 nM.
Work on B8 yielded a Kd of 10.3 ± 1.4 nM.
With B9 the Kd was 10.5 ± 2.2 nM.
In the case of B10, the Kd is reported as 37 ± 9 nM.
B11 showed a Kd of 9.4 ± 0.9 nM.
For B12, the Kd was 8.3 ± 1.1 nM.
Work on B13 yielded a Kd of 9 ± 1.7 nM.
For B14, the Kd was 6.3 ± 0.9 nM.
B15 gave a Kd of 29.1 ± 3.4 nM.
B16 was tested, and the Kd was 3 ± 0.4 nM.
With B17 the Kd was 5.8 ± 1 nM.
B18 gave a Kd of 15 ± 5 nM.
For B19, the Kd was 4.9 ± 0.5 nM.
For B20, the Kd was 5.8 ± 1 nM.
For B21, the Kd was 5.7 ± 0.7 nM.
In the case of B22, the Kd is reported as 16 ± 2.5 nM.
Work on B23 yielded a Kd of 4.4 ± 0.5 nM.
B24 gave a Kd of 9.6 ± 1.1 nM.
With B25 the Kd was 4.9 ± 0.6 nM.
Work on B26 yielded a Kd of 7.5 ± 0.7 nM.
B27 was tested, and the Kd was 86 ± 16 nM.
For B28, the Kd was 88 ± 13 nM.

— paper PMC10786891, “Massively parallel profiling of RNA-targeting CRISPR-Cas13d”
